Measured values reported in the supplement of paper PMC6757056.
± gives the standard deviation of the averaged measurements.

B1: library; a variant is named by its letters at N, in order (parent)
chain: GCUGUCACCGGUGCUUGGUACGUUAUAUUCAGCCGGUCUGAUGAGUCUNNNNNNAGACGAAACAGC

What was measured:
(6R,S)-folinic acid [1] = variants of: B1; test: FACS-Seq fitted mean relative fluorescence mCherry/BFP without ligand (log10 relative fluorescence); HEK293T overexpressing SLC46A1; higher = higher reporter protein expression; conditions: without (6R,S)-folinic acid; ligand present: no
Summary of the method: (§1)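 Fluorescence is reported as a normalized fitted mean of sorted-bin read counts. Lentivirally transduced HEK293T libraries (mCherry ribozyme-switch reporter, EF1α-BFP marker) were enriched, treated with or without ligand for 48 h, and sorted into 6 mCherry/BFP bins for MiSeq sequencing of PCR-amplified genomic DNA. The normal fit was on log10(mCherry/BFP), scaled to five spiked-in control ribozymes.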

(6R,S)-folinic acid [2] = variants of: B1; test: normalized RNA/DNA level without ligand (relative to sTRSVctl = 100) (log10 (% of sTRSVctl)); HEK293T overexpressing SLC46A1; higher = less ribozyme self-cleavage, higher mRNA level; conditions: without (6R,S)-folinic acid; ligand present: no
Protocol: (§2)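 Hammerhead (sTRSV) ribozyme switch libraries with a ligand aptamer grafted on stem I and a randomized N4-6 loop II, cloned into the 3' UTR of mCherry and transiently transfected into HEK293T cells; RNA-Seq 72 h post transfection with ligand added 1 h before transfection; RNA read count / plasmid DNA read count normalized to the non-cleaving sTRSVctl (x100), log10; sequences with >100 DNA reads. FACS-Seq: lentiviral library sorted into 6 bins after 48 h ligand, log-normal fit mean of mCherry/BFP scaled to controls. Printed sequences are partial switch sequences.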

(6R,S)-folinic acid [3] = variants of: B1; test: FACS-Seq fitted mean relative fluorescence mCherry/BFP with ligand (log10 relative fluorescence); HEK293T overexpressing SLC46A1; ligand concentration (+) FACS-Seq: 6 mM; higher = higher reporter protein expression; conditions: with (6R,S)-folinic acid; ligand present: yes
Summary of the method: as §1

(6R,S)-folinic acid [4] = variants of: B1; test: normalized RNA/DNA level with ligand (relative to sTRSVctl = 100) (log10 (% of sTRSVctl)); HEK293T overexpressing SLC46A1; ligand concentration (+) RNA-Seq: 6 mM; higher = less ribozyme self-cleavage, higher mRNA level; conditions: with (6R,S)-folinic acid; ligand present: yes
Protocol: as §2

Variant	FACS-Seq fitted mean (log10) ((6R,S)-folinic acid [1])	normalized RNA/DNA level without ligand (log10) ((6R,S)-folinic acid [2])	FACS-Seq fitted mean (log10) ((6R,S)-folinic acid [3])	normalized RNA/DNA level with ligand (log10) ((6R,S)-folinic acid [4])
GCGUAG	0.314 ± 0.07	1.962 ± 0.0022	0.372 ± 0.13	2.05 ± 0.022
GCGUAC	0.258 ± 0.3	1.974 ± 0.0093	0.514 ± 0.11	2.02 ± 0.022
GCGUAA	0.297 ± 0.07	1.991 ± 0.014	0.2 ± 0.11	2.04 ± 0.046
UGAGAA	0.5 ± 0.038	1.917 ± 0.011	0.533 ± 0.26	1.98 ± 0.026
UGAGAU	0.457 ± 0.23	1.83 ± 0.043	0.572 ± 0.015	1.98 ± 0.041
UGAGAG	0.384 ± 0.054	1.689 ± 0.012	0.526 ± 0.022	1.92 ± 0.02
GCUGCC	0.382 ± 0.084	2.08 ± 0.0024	0.484 ± 0.32	2.042 ± 0.0033
GCGUGG	0.353 ± 0.032	1.968 ± 0.0025	0.444 ± 0.14	2.06 ± 0.046
GCUAUA	0.337 ± 0.086	1.985 ± 0.014	0.51 ± 0.19	2.019 ± 0.0034
UGAGCU	0.387 ± 0.081	2 ± 0.013	0.479 ± 0.087	2.019 ± 0.012
UGAGCG	0.157 ± 0.15	1.736 ± 0.012	0.218 ± 0.39	1.98 ± 0.024
UGAAUG	0.0422 ± 0.017	1.758 ± 0.0067	0.2668 ± 0.0023	1.98 ± 0.021
UGACAA	-0.327 ± 0.12	1.952 ± 0.0062	-0.72 ± 0.24	2.024 ± 0.018
UGACAG	0.327 ± 0.16	1.82 ± 0.022	0.34 ± 0.028	1.971 ± 0.0094
CCUUUA	0.459 ± 0.027	2.019 ± 0.018	0.136 ± 0.057	2.06 ± 0.053
CCUACA	-0.221 ± 0.03	2.02 ± 0.044	-0.392 ± 0.29	2.04 ± 0.043
CGAGUU	0.1373 ± 0.00078	1.997 ± 0.012	0.394 ± 0.014	2 ± 0.031
CGAGUG	0.389 ± 0.14	1.964 ± 0.0042	0.341 ± 0.17	2.01 ± 0.032
ACUGGG	-0.0324 ± 0.033	1.841 ± 0.016	0.115 ± 0.1	2.0256 ± 0.0015
GGAGUA	0.117 ± 0.042	1.9805 ± 0.0005	0.0493 ± 0.22	2.03 ± 0.029
ACGGCA	0.0556 ± 0.13	2.02 ± 0.026	0.139 ± 0.39	2.04 ± 0.029
UCUGGG	0.501 ± 0.098	1.836 ± 0.012	0.524 ± 0.01	1.98 ± 0.027
UCUGGA	0.542 ± 0.018	1.99 ± 0.012	-0.0265 ± 0.23	2.05 ± 0.027
GCUUUA	0.213 ± 0.02	1.99 ± 0.026	0.0416 ± 0.19	1.98 ± 0.05

Variant	FACS-Seq fitted mean (log10) ((6R,S)-folinic acid [1])	normalized RNA/DNA level without ligand (log10) ((6R,S)-folinic acid [2])	FACS-Seq fitted mean (log10) ((6R,S)-folinic acid [3])	normalized RNA/DNA level with ligand (log10) ((6R,S)-folinic acid [4])
AGACAG	0.659 ± 0.017	1.941 ± 0.0083	0.854 ± 0.36	2.01 ± 0.026
CGAGGG	0.504 ± 0.034	1.844 ± 0.0078	0.672 ± 0.22	1.968 ± 0.011
ACGGUU	0.41 ± 0.022	1.99 ± 0.02	0.495 ± 0.047	2.01 ± 0.025
ACGUUU	-0.149 ± 0.046	2.004 ± 0.015	-0.00103 ± 0.41	2.025 ± 0.015
ACGUUA	0.21 ± 0.027	1.991 ± 0.011	0.285 ± 0.14	2.02 ± 0.027
UCGUUG	0.531 ± 0.029	1.881 ± 9.4e-05	0.5984 ± 0.0051	2.006 ± 0.0038
ACGCUU	-0.382 ± 0.065	2.057 ± 0.018	-0.593 ± 0.26	2.047 ± 0.0046
UGACUG	0.14 ± 0.2	1.857 ± 0.0074	0.368 ± 0.08	1.99 ± 0.054
GCUGAA	-0.084 ± 0.057	2.021 ± 0.02	-0.25 ± 0.14	2.03 ± 0.028
GCUGAU	0.277 ± 0.044	2.036 ± 0.0025	0.23 ± 0.0065	2.014 ± 0.019
GCGCUA	0.652 ± 0.016	2.067 ± 0.018	0.697 ± 0.34	2.05 ± 0.021
GCUUAC	0.583 ± 0.13	2.02 ± 0.026	0.554 ± 0.32	2.01 ± 0.052
GCUUAA	0.522 ± 0.21	1.9846 ± 0.00062	0.5605 ± 0.0027	2.01 ± 0.023
CCUAAG	0.536 ± 0.044	1.9074 ± 0.0005	0.332 ± 0.0073	2.002 ± 0.018
CCUAAU	0.239 ± 0.0063	2.041 ± 0.011	0.0269 ± 0.022	2.07 ± 0.067
GCUGGU	0.447 ± 0.19	1.969 ± 0.0056	0.172 ± 0.21	1.99 ± 0.032
UCGUCG	0.35 ± 0.044	2.02 ± 0.04	0.455 ± 0.16	2.06 ± 0.011
UCUCGA	0.597 ± 0.079	2.071 ± 0.012	0.413 ± 0.029	2.03 ± 0.021
UCUCGU	0.148 ± 0.028	1.9916 ± 0.0016	-0.0695 ± 0.1	2.012 ± 0.013
CCUGCU	-0.139 ± 0.054	2.06 ± 0.013	-0.135 ± 0.0061	2.08 ± 0.04
GCUUCA	0.3988 ± 0.0025	2.04 ± 0.033	0.641 ± 0.1	2.06 ± 0.031
GCUCAU	-0.192 ± 0.045	2.02 ± 0.029	-0.09 ± 0.67	2.009 ± 0.013
GCUCAC	0.502 ± 0.15	2.046 ± 0.0078	0.372 ± 0.23	2.032 ± 0.01
GCUCAA	0.44 ± 0.027	1.978 ± 0.0021	0.374 ± 0.1	1.985 ± 0.013

Variant	FACS-Seq fitted mean (log10) ((6R,S)-folinic acid [1])	normalized RNA/DNA level without ligand (log10) ((6R,S)-folinic acid [2])	FACS-Seq fitted mean (log10) ((6R,S)-folinic acid [3])	normalized RNA/DNA level with ligand (log10) ((6R,S)-folinic acid [4])
AGACCA	0.1 ± 0.31	2.05 ± 0.0039	0.262 ± 0.072	2.03 ± 0.028
AGACCU	0.618 ± 0.15	2.02 ± 0.041	0.641 ± 0.01	2.05 ± 0.027
GGAGAA	0.29 ± 0.13	1.961 ± 0.013	0.201 ± 0.0069	2.01 ± 0.022
GGAGAC	0.571 ± 0.081	2.0007 ± 0.00018	0.512 ± 0.3	2.009 ± 0.0055
GGAGAU	0.0885 ± 0.2	1.959 ± 0.0067	-0.253 ± 0.085	1.99 ± 0.049
UCGGCC	0.562 ± 0.15	2.098 ± 0.0059	0.476 ± 0.036	2.043 ± 0.011
UCGGCU	0.288 ± 0.09	2.08 ± 0.024	0.415 ± 0.31	2.06 ± 0.053
GCUCUG	0.433 ± 0.072	1.99 ± 0.024	0.646 ± 0.038	2.03 ± 0.037
CCGGUU	0.218 ± 0.017	2.038 ± 0.016	-0.22 ± 0.1	2.01 ± 0.018
UGACCA	0.061 ± 0.12	2.042 ± 0.0098	-0.0235 ± 0.23	2.05 ± 0.039
UCUUGG	0.272 ± 0.099	1.904 ± 0.0099	0.131 ± 0.092	1.99 ± 0.022
UCUUGC	0.264 ± 0.036	2.018 ± 0.0075	0.449 ± 0.17	2.009 ± 0.016
UGAAGG	0.12 ± 0.034	1.645 ± 0.012	0.569 ± 0.24	1.96 ± 0.042
UGAAGU	0.167 ± 0.1	1.907 ± 0.015	0.347 ± 0.17	2.01 ± 0.036
UGAAGA	0.139 ± 0.053	1.877 ± 0.0079	0.513 ± 0.11	1.98 ± 0.027
ACUUUA	0.348 ± 0.12	1.978 ± 0.014	0.366 ± 0.15	2.01 ± 0.028
UGACGC	0.28 ± 0.091	2.017 ± 0.0099	0.284 ± 0.026	2.033 ± 0.017
UGACGG	-0.24 ± 0.039	1.748 ± 0.0057	0.0392 ± 0.065	1.99 ± 0.044
UGACGA	0.311 ± 0.052	1.9519 ± 0.0017	0.493 ± 0.015	2.04 ± 0.014
GGACGA	0.242 ± 0.039	2.022 ± 0.011	0.493 ± 0.027	2.042 ± 0.011
GGACGU	0.583 ± 0.13	1.955 ± 0.015	0.529 ± 0.32	1.95 ± 0.024
UGAGUA	0.204 ± 0.015	1.911 ± 0.0073	0.422 ± 0.1	2 ± 0.043
UGAGUG	0.376 ± 0.083	1.652 ± 0.011	0.652 ± 0.081	1.93 ± 0.023
GGACCG	0.438 ± 0.24	2.065 ± 0.0084	0.0255 ± 0.12	2.02 ± 0.031
